Results taken from patent US20230312724A1 (KADMON, published 2023).
Read-outs that look alike come from different tables or passages of the source.

Columns and labels:
[1] = target: T1, IgC domain of human B7-H4-Fc (human); experiment: ELISA, coated hB7-H4 IgC domain
T1 construct: also called hB7-H4 IgC domain

[2] = target: T2, hB7-H4 (soluble human B7-H4, construct not named) (human, UniProt Q7Z7D3 25-259, limits assumed); experiment: SPR (Biacore)
T2 construct: also called soluble hB7-H4
T2 sequence: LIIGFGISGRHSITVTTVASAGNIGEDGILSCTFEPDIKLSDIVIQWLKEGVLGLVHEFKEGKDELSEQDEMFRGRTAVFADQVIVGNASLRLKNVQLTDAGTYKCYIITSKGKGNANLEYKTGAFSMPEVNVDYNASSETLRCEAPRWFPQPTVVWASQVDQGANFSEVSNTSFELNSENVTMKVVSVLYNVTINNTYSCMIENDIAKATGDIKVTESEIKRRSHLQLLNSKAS

[3] = target: T3, IgV domain of mouse B7-H4-Fc (mouse; human); experiment: ELISA, coated mB7-H4 IgV domain
T3 construct: also called mB7-H4 IgV domain
T3 sequence (chain, as listed by the source): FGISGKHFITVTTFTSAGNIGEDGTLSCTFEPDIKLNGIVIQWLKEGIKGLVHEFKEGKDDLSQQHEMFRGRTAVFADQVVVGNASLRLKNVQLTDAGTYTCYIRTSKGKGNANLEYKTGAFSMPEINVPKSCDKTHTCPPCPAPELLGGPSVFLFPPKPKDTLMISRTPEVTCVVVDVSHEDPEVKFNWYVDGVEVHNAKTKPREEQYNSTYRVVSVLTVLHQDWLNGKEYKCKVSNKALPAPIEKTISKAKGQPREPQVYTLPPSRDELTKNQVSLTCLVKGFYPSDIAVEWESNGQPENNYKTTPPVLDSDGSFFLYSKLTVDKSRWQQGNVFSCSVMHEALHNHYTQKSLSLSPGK

[4] = target: T4, mB7-H4 (soluble mouse B7-H4, construct not named) (mouse, UniProt Q7TSP5 25-257, limits assumed); experiment: SPR (Biacore); values equal to Table 11
T4 sequence: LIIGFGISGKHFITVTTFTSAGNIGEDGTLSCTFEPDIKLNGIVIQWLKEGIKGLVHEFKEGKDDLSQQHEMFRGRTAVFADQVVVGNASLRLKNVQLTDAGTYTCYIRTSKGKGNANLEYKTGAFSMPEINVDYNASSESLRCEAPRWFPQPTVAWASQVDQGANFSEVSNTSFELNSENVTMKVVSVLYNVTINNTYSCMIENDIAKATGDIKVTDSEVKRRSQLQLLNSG

[5] = target: T5, human B7-H4 expressed on cells (human, UniProt Q7Z7D3 25-282); experiment: flow cytometry, SK-BR-3 cells
T5 construct: Transfected CHO cells or tumor cell lines that carry hB7-H4; also called cellular hB7-H4
T5 sequence: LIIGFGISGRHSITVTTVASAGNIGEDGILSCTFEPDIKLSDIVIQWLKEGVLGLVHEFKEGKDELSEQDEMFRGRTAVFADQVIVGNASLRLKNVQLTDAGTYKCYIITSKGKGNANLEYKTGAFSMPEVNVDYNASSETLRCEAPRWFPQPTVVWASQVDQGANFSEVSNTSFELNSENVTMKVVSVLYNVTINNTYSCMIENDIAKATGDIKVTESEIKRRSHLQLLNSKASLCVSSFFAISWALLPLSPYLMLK

[6] = target: T4, mB7-H4 (soluble mouse B7-H4, construct …); experiment: ELISA, mB7-H4
Description: (§1) About 1-2 μg/ml of human or mouse B7-H4-Fc (or his-tagged) was immobilized on ELISA plates (Immuno 2HB, Thermo scientific, cat #3455) at 4° C. overnight. After blocking the plates with 3% PBS+milk, serial diluted antibodies were added to the blocked plates and incubated at RT for 1-1.5 h. After washing the plates with PBS-T (0.05%), horse radish peroxidase (HRP)-conjugated antibody targeting the hFab was added to the plate. Signals were developed by adding 3,3′,5,5′-Tetramethylbenzidine (TMB (followed 1N of H₂SO₄ to stop the reaction. The OD at 450 nm was read by ELISA plate reader (Infinite M1000 from TECAN). GraphPad from Prism was used to plot OD450 vs. antibody concentration curve and to calculate the EC50 values.

[7] = target: T6, mouse B7-H4 expressed on cells (mouse, UniProt Q7TSP5 25-257); experiment: flow cytometry, mB7-H4/CT26 cells
T6 construct: also called cellular mB7-H4; mB7-H4/CT26
T6 sequence: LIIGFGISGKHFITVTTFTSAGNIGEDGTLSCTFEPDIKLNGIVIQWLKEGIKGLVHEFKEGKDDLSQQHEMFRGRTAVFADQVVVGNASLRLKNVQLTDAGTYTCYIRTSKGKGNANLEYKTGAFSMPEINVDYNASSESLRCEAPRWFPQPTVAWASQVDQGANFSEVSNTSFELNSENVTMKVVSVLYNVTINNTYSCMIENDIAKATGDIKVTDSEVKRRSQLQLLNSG

[8] = target: T2, hB7-H4 (soluble human B7-H4, construct …); experiment: ELISA, hB7-H4
Description: as §1

[9] = target: T7, IgV domain of human B7-H4-Fc (human); experiment: ELISA, coated hB7-H4 IgV domain
T7 construct: also called hB7-H4 IgV domain
T7 sequence (chain, as listed by the source): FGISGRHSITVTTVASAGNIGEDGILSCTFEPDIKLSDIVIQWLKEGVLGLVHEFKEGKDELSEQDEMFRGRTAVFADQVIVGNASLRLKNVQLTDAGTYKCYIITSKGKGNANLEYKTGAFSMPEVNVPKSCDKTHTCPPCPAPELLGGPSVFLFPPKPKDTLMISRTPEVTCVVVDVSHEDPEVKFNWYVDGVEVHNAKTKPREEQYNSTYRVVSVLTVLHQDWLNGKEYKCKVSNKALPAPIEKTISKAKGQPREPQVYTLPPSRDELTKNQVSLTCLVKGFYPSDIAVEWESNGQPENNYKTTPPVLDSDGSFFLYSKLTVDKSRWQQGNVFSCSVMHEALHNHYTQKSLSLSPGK

[10] = target: T8, mouse B7-H4-Fc (mouse; human); experiment: ELISA, coated mB7-H4-Fc
T8 construct: also called mB7-H4-Fc; mB7-H4-hFc
T8 sequence (chain, as listed by the source): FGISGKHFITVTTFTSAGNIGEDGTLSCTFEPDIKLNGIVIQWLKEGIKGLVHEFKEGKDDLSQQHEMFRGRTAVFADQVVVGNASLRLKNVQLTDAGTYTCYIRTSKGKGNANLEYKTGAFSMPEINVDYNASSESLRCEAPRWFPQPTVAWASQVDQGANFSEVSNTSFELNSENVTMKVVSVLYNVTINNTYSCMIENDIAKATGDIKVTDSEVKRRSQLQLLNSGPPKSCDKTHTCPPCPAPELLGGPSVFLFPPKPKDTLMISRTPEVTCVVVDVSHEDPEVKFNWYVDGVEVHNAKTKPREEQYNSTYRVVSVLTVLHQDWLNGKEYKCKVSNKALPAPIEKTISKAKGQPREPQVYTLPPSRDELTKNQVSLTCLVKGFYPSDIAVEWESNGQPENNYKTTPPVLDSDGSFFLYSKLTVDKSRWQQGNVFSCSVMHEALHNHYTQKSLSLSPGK
Method in brief: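 Coat: B7-H4-Fc or his-tagged protein, ~1-2 μg/ml, 4° C overnight. Block 3% PBS+milk; serial antibody dilutions 1-1.5 h RT; wash PBS-T (0.05%); HRP anti-hFab; TMB, 1N H₂SO₄ stop; OD450. EC50 from dose-response fit.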

[11] = target: T1, IgC domain of human B7-H4-Fc; experiment: ELISA, coated hB7-H4 IgC domain; remark: listed apart in the source
Description: ELISA experiments were performed to determine binding to hB7-H4-Fc (FIG. 5A), hB7-H4-his (FIG. 5B), mB7-H4-Fc domain (FIG. 5C), hB7-H4 IgV domain (FIG. 5D), and hB7-H4 IgC domain (FIG. 5E). Flow cytrometry experiments were performed to determine binding to CHO cells expressing hB7-H4 (FIG. 5F) or mB7-H4 (FIG. 5G). […] A cross-reactive IgV binding antibody and an IgC binding antibody were used as controls.
as §1

T1 sequence (chain, as listed by the source): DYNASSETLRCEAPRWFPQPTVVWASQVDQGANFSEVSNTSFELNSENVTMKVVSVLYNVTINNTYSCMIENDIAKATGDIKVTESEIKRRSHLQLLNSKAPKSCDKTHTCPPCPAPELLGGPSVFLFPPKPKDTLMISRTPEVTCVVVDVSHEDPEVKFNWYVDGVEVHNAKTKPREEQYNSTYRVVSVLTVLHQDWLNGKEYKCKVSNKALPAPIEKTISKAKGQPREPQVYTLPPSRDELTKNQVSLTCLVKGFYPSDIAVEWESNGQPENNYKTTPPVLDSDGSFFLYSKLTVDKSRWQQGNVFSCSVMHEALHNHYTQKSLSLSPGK

EC50 (read off the curve) [1]: ~0.2 nM | Kd [2]: 0.626 nM | binding result [3]: no binding (tested: log 1 nM (10 nM)) | Kd [4]: 0.626 nM | EC50 [5]: 3.37 nM | EC50 [6]: 0.289 nM | EC50 [7]: 18.4 nM | EC50 [8]: 0.222 nM | binding result [9]: no binding (tested: log 1 nM (10 nM)) | binding result [10]: binds | EC50 (read off the curve) [11]: ~0.01 µg/mL
B1: Control antibody 2 (antibody 6H3 described in U.S. Pat. No. 9,574,000) (antibody, V domains shown)
VH: EVQLQQSGPVLVKPGTSVKMSCKASGYTFTDYYMNWVKQSHGKSLEWIGVINPYNGDTTYNQKFKGKATLTVDKSSSTAYMEVNSLTFEDSAVYYCARYPESTYWGQGTLVTVSA
VL: DVVMTQTPLSLPVSLGDQASISCRSSQSLVHINGNTYLHWYLQKPGQSPKVLIYKVSNRFSGVPDRFSGSGSGTDFTLKISRVEAEDLGVYFCSQSTHVPLTFGAGTKLELK
notes: also called (+) control Ab2; Ab2
